The data set is described as follows: soluble on expression in E. coli; label from the status in PepcDB or PDB records.
Take “MSLTKDDQKELGKTLWAIADQLRGSMNADDFRDYMLSFLFLRYLSDNYEAAAKKELGSDYPDAKTIGNSDKTPLSVWYASNPGDVAAFEQQMRRKAHYVIKPKYLWGNIVNLAKKQNHDLLDTLQQGFKHIEEDSFESEFQGLFSEINLASDKLGRKYDDRNAKLCSIISEIARGMALSAKTDSLGDAYEYLIGQFAAGSGKKAGEFYTPQEISNILSAIVTLDSQEPKTGPRGKLDSVFDFACGSGSLLLNIRNRMTNSGGSIGKIYGQEYNVTTYNLARMNMLLHGVKDTEFEIYHGDTLKNDWDWLRETNPAKKPRFDAVVANPPFSYRWEPGEAMAQDARFKNHGVAPKSAADFAFLLHGLQYLKDDGVMAIILPHGVLFRGGKEADIRRKLLDDGHIDTVIGLPANLFYSTGIPVCILVLKKCKKPDDVLFINAAGHFAKGKRQNQLTDEHIQRIVNTYQNRNKQDRYSRCVSMKEIADKDYNLNISRYVSTAEADKEIVLEAVHADLTAIESRLEESKKRHNAFLVELGLKPLPEGHHHHHH”: the “soluble on expression in E. coli” value is “soluble”.
Consider “MSLTKLLLLQKIKDPDLKQIHRDFPDLELINADEMTNELVDQIEIVYGQFSHLQKGYGFSSWFGKVVPNGKSLKWVQTISAGIDFLPLDQLAKRGIMVSNMSGLHSEAISENVLAYILILNRGLKFALANQAKQSWDFNFPKIKQLQDKKILIFGTGAIGSAIAKILQAFDVEVIGVNRHGKDLKYFDRVITQEQLGDFADADYLISDMPLTTQTRGYFDSDFFSLFKKQPIFINVGRGPSVVEKDLIKALKADILSGAALDVFEHEPLASDSPLWKMENVIVTPHSSALLEHFQRDAYKIFGPNLKSYLANGEGHHHHHH”, for which the “soluble on expression in E. coli” value is “not soluble”.
For “MSLTKNNISFYVVDASEELTMNIKEASEKSGVSADTIRYYERIGLIPPIHRNESGVRKFGAEDLRWILFTRQMRRAGLSIEALIDYLALFREGEHTLEARAELLKKQRIELKNRIDVMQEALDRLDFKIDNYDTHLIPAQEELKDFNVERSNEGHHHHHH” the value was “soluble”; for “MSLTLKLGFKPFSFHLLRSLRTSQGIIKKKEGWLIKLENKTGRLGWGEIAPLNLSELNICGKILEKLGNSPSRQTLEEGIPNWPGSLAFAIGAALAEIDYLIGNDSKNKWLSVTSSALLLPNEESILLNTLQSVLDKHKETQKELTFKWKIRNTSSDSDLNLLKKILFLLPENTRLRIDANGGLNRIQAHEWAQALQNEARIEWLEQPLAVDDIEGMNELAQMLPIALDESLIYNPSLRKSWTGWQIRRPLIEGDPRILLKEFKEKNSYISISTSFETGIGKRWIEHFAALQLRGLTPTQPGLAPGWCPKGPLFCQNPQLVWEAAEGHHHHHH”, “soluble”; for “MSLTNFSQQHLPLVEKVMVDFIAEYTENERLKEAMLYSIHAGGKRLRPLLVLTTVAAFQKEMETQDYQVAASLEMIHTYSLIHDDLPAMDDDDLRRGKPTNHKVFGEATAILAGDGLLTGAFQLLSLSQLGLSEKVLLMQQLAKAAGNQGMVSGQMGDIEGEKVSLTLEELAAVHEKKTGALIEFALIAGGVLANQTEEVIGLLTQFAHHYGLAFQIRDDLLDATSTEADLGKKVGRDEALNKSTYPALLGIAGAKDALTHQLAEGSAVLEKIKANVPNFSEEHLANLLTQLQLREGHHHHHH”, “soluble”.
With “MSLTNNSETFNVLHASDFHIQLDYKLGAEGNCTLVPCGTSSSYSKDAPGKTYNFTDYYKSFNSDVSGNDISFYPDSHYDENAKFSKGDYYDFPQYFGWSFNKAPATSFGAYLSDAPYLLVNNSIVEMKKLHQEKNFESIIFTGDSFSHNGELANPDELKFSEAAIFNLINHYLNGVQVFPALGNHDTMFRYAEVAPRIYVSNASYYWNEDYVTDLWVNNGWFDKKDADAIKTHYTGYSFTTKRGLKVIGMNSNFYYGDNLWSYGETTTKPDKFGIWKFLIDELVDSESHGQRVWIMAHIPSNNYDVLPIQSHIFAAIVKRFSPYTIANLFFGHTHRTQYSVYYSTNDTSKIEDALTVSWVNPSVTPYTNFNPGFRYYEVENESFNIRNSFSYYFDLNGTEGHHHHHH”, the “soluble on expression in E. coli” value was “soluble”.
As for “MSLTPEHLPTEQYEAQLAEKVVRLQSMMAPFSDLVPEVFRSPVSHYRMRAEFRIWHDGDDLYHIIFDQQTKSRIRVDSFPAASELINQLMTAMIAGVRNNPVLRHKLFQIDYLTTLSNQAVVSLLYHKKLDDEWRQEAEALRDALRAQNLNVHLIGRATKTKIELDQDYIDERLPVAGKEMIYRQVENSFTQPNAAMNIQMLEWALDVTKGSKGDLLELYCGNGNFSLALARNFDRVLATEIAKPSVAAAQYNIAANHIDNVQIIRMAAEEFTQAMNGVREFNRLQGIDLKSYQCETIFVDPPRSGLDSETEKMVQAYPRILYISCNPETLCKNLETLSQTHKVERLALFDQFPYTHHMECGVLLTAKEGHHHHHH”, the entry is “soluble”; as for “MSLTQETALGAALKSAVQTMSKKKQTEMIADHIYGKYDVFKRFKPLALGIDQDLIAALPQYDAALIARVLANHCRRPRYLKALARGGKRFDLNNRFKGEVTPEEQAIAQNHPFVQQALQQQSAQAAAETLSVEAEAAESSAAEEGGSHHHHHH”, “soluble”.
For “MSLTQGSVIFTQNRPGLDEKIFKIYKFKTMSDERDEKGELLSDELRLKAFGKIVRSLSLDELLQLFNVLKGDMSFVGPRPLLVEYLPLYNKEQKLRHKVRPGITGWAQVNGRNAISWQKKFELDVYYVKNISFLLDLKIMFLTALKVLKRSGVSKEGHVTTEKFNGKNEGHHHHHH” the value was “not soluble”; for “MSLTQMEMARKGVVSDEMKKVAEYEGVDVEIVRQKLAEGRAVLPKNKLHRIERPMIVGEGFSVKVNANIGTSQGFSSLEEEKEKARVAIEYGADSLMVLSTWGDLREIRRAIVEMSPVPVGSVPIYDSAVRSYQMKKNVVDFSEKDFFDMVIAHAEDGIDFMTIHVGVTRRVLDRIKSSRRVLKIVSRGGAIIAGWMIKNNKENPFYEHFDELLDIAKDYDITLSLGDGMRPGAVVDASDAQQFEELFVMGELVERAREKGVQVMLEGPGHVPLNEVEMNVRLMKKIGKGAPIFLLGPLPTDRAMGYDHIACAIGGALAGYYGADFLCYVTPSEHISLPDVEDVREGVIASKIAAIVADVARGNKKAWELEKKMALARKNFDWETMFSLSLGKDVAKKKYEERPYPDKGCSMCGPFCAIKIAEEFSEGHHHHHH”, “soluble”; for “MSLTQRIDFQTDPSRYRHWRVAYDGEIANLYMDVDEQGGLFPGYELKLNSYDLGVDIELADIVQRMRFEHPEVKVVVMQSGKDRVFCAGANIRMLGGASHAHKVNFCKFTNETRNTYEAAEADSGQKYIAAVKGACAGGGYELALACNYIMLTNDSSSSVALPEVPLLAVLPGTGGLTRVTDKRKVRRDLADVFCSVEEGVRGQRAVDWRLVDEIAPNSKFDEVVQERAREFASASVKPSGLTGIALTPLDRRFAEDGSVTYSTVEVVVEREAGRATLTISGPTDAAPDTVDALQAQGAEAWILRAARELDDAILHLRLNERRIGTLVIQTQGDGAAVAAHEALLLENRDHWLANEILQHWKRVLKRVDMTSRSLVAIVEHGSCFAGPLAELLWAVDRSYMMLEEFEGDNRPLAAITLSPGNFGTYPMGNDLSRLATRFLGTPEAVEAARARIGEALEAEEAEKLGLVTYVLDDIDWEDEVRVFLEERASFSPDAMTGMEANLRFAGPETMETRIFGRLTAWQNWIFQRPNAVGPDGALQRYGTGVRGDYDMERVEGHHHHHH”, “soluble”.
For “MSLTQTPNTGSPHRVVIVGGGAGGLELAAKLGRAHGRERVTLVDSRPFHIWKPSLHEAAAGTLDIHQEGLSYLMLANMCNFTFAQGELQGIERERRQIQVGPVADPSGQQVLPPRELSYDTLVLAMGSTSNFFNTPGAAEHAVTLDTTENAEQFRLTMLKAMVQVDLRKVHDPSARLDLVIVGGGATGVELAVELIEASHVVSAYGLPNFRADRDLVITLVEGAPRILSALPEKISRAAHARLTELGVRVETDCRVAEVGADHVVTADGRRFEATMCLWAAGIEGPPLFRQLGLPLNRLGQLEVNERLESPDPHILALGDCCAAPWKDGRTVPARAQAAHQQADYLARKLTARLRNAAEPTEAYAYHDHGSLVSLGQGSGVGSLMGKLAGRGLFVSGTLARLMYMSLHLMHHRAVLGISRTATLALARLLMRRTRPRVKLHEGHHHHHH” the value was “soluble”; for “MSLTQVPAGQFTATKNLRPAAKPGKDVVLRVYSDFQCPYCQKLELETMPALLRALPDDVRVEFHQFPLEQIHPLARPAAEASECAAQQGRFWDYKDALFRDRSWLQNNPNETFLRLAGDLKLDPGKFKDCLALRGGKAGVDAGLAEAQQLGLNATPTVFVDGYRVGNPFDTAAVLQLIDVARATREGHHHHHH”, “soluble”.
Turning to “MSLTRDAASITPARVRAHVFRYPVSTPVKTSFGTMHDRPAVLVEVEDSDGAVGWGEVWCNFPACGAEHRARLVETVLAPLLTARAFADPAQAFAHLEARTAVLAIQTGEPGPLAQAIAGLDIALCDLAARRAGQPLWAWLGGSGDRIGVYASGINPENPEDVVARKAAEGYRAFKLKVGFDDARDVRNALHVRELLGAATPLMADANQGWDLPRARQMAQRLGPAQLDWLEEPLRADRPAAEWAELAQAAPMPLAGGENIAGVAAFETALAARSLRVMQPDLAKWGGFSGCLPVARAVVAAGLRYCPHYLGAGIGLQASAHLLAAVPGLASPGLLEVDANDNPLRSLLSPALATLHEGRITLGGAPGLGVTPDLAALRAACAAREGHHHHHH”, the “soluble on expression in E. coli” value was “soluble”.
On to “MSLTRHQRLFVWTVTHGFREYGVAQQKTHHNTMSPEAAIEWVVRQEPGIFIFKDLHPFISSPAVTRWLREAIASFKGTEKAIILMSPYQETPIELEKDVVVLDFALPDLVTLDGVLGQQLGKSRHALGEDSREKLLKAALGLTKDEAEKVYRKAYVKAGQLTEGEVEIVLSEKKQMIRRNEGHHHHHH”, for which the “soluble on expression in E. coli” value was “not soluble”.
“MSLTTGRISELLSPNYADLNDPRPIFDWMQVIRKRAVVYVGLDALSDTEVAAAVGNSMFSDLVSVAGHIYKHGVDDGLPGSLAGGKVRINLHADEFNELIGDEFIPMVNKAGGAGVQVTAYTQTMSDIEAKIGSRAKAGQIIGNFNNLFMLRVRETATAELLTNQLPKVQIYTSTPASGANDAINNKKAAFTSSSHDQVQMTSVPMLEPAHIVGLPKGQAFALLEGGNLWKIRMPLPAVDPDEVMPKSLQELAAGMRKGQAANSEGHHHHHH”: the “soluble on expression in E. coli” value is listed as “not soluble”.
In the case of “MSLTTMKEIAEQTGVSISTVSLVLNGRDEGRVNPALAKLVRNKATELGYKINPLARSLRTNKTRILGFISEEVATTPYAGGIILGAQDAASAYGYMLFTVSTDGKASEENEIATLKRYGVDGFFYSKMSNRIAHVPESLSDYPVVMVDATDYENKVPSVEPDEFMIGYDATIRLLQADCKRIAYVGCAENMIAQDGRLAGYCTALQEAGRAFNPSLVCNVMNDGPALRAVNKLFDDEHPDGFFCFNDARAWYVYECAARRGLTVGKDISVVGVDNHRVFAETLEPQLTTVELPHYEMGYWSACKLISMIEGKDVDTSSCPSARASLPPLDAPIPAKIHCALLEKDSVISEGHHHHHH”, the “soluble on expression in E. coli” value was “soluble”.
For “MSLTTRVIALDLDGTLLTPKKTLLPSSIEALARAREAGYQLIIVTGRHHVAIHPFYQALALDTPAICCNGTYLYDYHAKTVLEADPMPVNKALQLIEMLNEHHIHGLMYVDDAMVYEHPTGHVIRTSNWAQTLPPEQRPTFTQVASLAETTQQVNAVWKFALTHDDLPQLQHFGKHVEHELGLECEWSWHDQVDIAHGGNSKGKRLTKWVEAQGWSMENVVAFGDNFNDISMLEAAGTGVAMGNADDAVKARANIVIGDNTTDSIAQFIYSHLIEGHHHHHH” the value was “not soluble”.

The values above are taken from the DeepSol protein solubility set.
